Test results published in PMC10614411, “Endometrial cancer (EC) derived G3BP1 overexpression and mutant promote EC tumorigenesis and metastasis via SPOP/ERα axis” (Cell Communication and Signaling : CCS, 2023).

Target: T1, FLAG-G3BP1 Q392*, bacterially expressed (UniProt Q13283 1-391, Q392*)
T1 construct: The bacterial expression construct is not described in the methods; source: bacterially expressed
Assay: pull-down; GST fusion protein fixed on glutathione-Sepharose beads, incubated with recombinant FLAG-labeled proteins for 2 h, washed 5 times, Western blot with anti-FLAG
Settings: both partners purified

T1 sequence (Q13283 1-391, stated change not applied): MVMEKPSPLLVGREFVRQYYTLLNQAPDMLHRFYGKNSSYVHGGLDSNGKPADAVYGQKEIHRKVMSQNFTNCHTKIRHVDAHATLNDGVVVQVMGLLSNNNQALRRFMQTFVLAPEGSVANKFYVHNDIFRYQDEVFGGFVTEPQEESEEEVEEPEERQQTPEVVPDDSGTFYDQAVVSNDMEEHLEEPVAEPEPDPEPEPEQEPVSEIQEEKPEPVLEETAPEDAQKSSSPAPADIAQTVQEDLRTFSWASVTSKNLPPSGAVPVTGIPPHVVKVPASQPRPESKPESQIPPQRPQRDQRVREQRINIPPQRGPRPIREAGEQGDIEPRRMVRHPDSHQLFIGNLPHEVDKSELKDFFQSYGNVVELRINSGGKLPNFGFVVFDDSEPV

binding result: binds
B1: GST-SPOP, bacterially expressed (natural protein, UniProt O43791 1-374, looked up)
chain: MSRVPSPPPPAEMSSGPVAESWCYTQIKVVKFSYMWTINNFSFCREEMGEVIKSSTFSSGANDKLKWCLRVNPKGLDEESKDYLSLYLLLVSCPKSEVRAKFKFSILNAKGEETKAMESQRAYRFVQGKDWGFKKFIRRDFLLDEANGLLPDDKLTLFCEVSVVQDSVNISGQNTMNMVKVPECRLADELGGLWENSRFTDCCLCVAGQEFQAHKAILAARSPVFSAMFEHEMEESKKNRVEINDVEPEVFKEMMCFIYTGKAPNLDKMADDLLAAADKYALERLKVMCEDALCSNLSVENAAEILILADLHSADQLKTQAVDFINYHASDVLETSGWKSMVVSHPHLVAEAYRSLASAQCPFLGPPRKRLKQS
notes: SPOP as a GST fusion protein; The bacterial expression construct is not described in the methods
